Data as given in the supplement of paper PMC5998384.

Tests used:
HeLa Kyoto [1] = experiment: solubility in G1/S (NP-40 vs SDS abundance) (log2 ratio); higher = more soluble; conditions: cell cycle stage: G1/S
HeLa Kyoto [2] = experiment: solubility change mitosis vs G1/S (difference of NP-40 vs SDS log2 ratios) (log2 ratio difference); higher = more soluble in mitosis
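For solubility change mitosis vs G1/S (difference of NP-40 vs SDS log2 ratios) in this document: synchronized HeLa Kyoto cells (double thymidine block for G1/S, nocodazole release for mitosis), protein amounts in NP-40 versus SDS lysates quantified by mass spectrometry, three biological replicates.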
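For solubility in G1/S (NP-40 vs SDS abundance) in this document: HeLa Kyoto cells arrested at G1/S by double thymidine block, proteins quantified by TMT10plex mass spectrometry in mild NP-40 versus SDS extracts, three biological replicates.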

TFAP2A, sequence (chain, as listed by the source): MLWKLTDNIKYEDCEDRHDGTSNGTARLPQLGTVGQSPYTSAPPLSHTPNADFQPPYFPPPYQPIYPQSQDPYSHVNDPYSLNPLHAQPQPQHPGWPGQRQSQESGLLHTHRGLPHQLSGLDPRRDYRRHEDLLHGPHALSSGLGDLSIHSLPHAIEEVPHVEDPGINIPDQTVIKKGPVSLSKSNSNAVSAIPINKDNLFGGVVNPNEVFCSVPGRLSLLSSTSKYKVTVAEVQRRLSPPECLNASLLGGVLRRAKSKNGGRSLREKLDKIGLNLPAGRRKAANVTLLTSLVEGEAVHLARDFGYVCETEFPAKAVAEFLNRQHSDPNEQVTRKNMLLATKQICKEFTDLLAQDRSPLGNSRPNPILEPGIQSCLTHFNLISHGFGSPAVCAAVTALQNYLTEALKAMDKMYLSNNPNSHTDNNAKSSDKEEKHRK
COL4A1, sequence (chain, as listed by the source): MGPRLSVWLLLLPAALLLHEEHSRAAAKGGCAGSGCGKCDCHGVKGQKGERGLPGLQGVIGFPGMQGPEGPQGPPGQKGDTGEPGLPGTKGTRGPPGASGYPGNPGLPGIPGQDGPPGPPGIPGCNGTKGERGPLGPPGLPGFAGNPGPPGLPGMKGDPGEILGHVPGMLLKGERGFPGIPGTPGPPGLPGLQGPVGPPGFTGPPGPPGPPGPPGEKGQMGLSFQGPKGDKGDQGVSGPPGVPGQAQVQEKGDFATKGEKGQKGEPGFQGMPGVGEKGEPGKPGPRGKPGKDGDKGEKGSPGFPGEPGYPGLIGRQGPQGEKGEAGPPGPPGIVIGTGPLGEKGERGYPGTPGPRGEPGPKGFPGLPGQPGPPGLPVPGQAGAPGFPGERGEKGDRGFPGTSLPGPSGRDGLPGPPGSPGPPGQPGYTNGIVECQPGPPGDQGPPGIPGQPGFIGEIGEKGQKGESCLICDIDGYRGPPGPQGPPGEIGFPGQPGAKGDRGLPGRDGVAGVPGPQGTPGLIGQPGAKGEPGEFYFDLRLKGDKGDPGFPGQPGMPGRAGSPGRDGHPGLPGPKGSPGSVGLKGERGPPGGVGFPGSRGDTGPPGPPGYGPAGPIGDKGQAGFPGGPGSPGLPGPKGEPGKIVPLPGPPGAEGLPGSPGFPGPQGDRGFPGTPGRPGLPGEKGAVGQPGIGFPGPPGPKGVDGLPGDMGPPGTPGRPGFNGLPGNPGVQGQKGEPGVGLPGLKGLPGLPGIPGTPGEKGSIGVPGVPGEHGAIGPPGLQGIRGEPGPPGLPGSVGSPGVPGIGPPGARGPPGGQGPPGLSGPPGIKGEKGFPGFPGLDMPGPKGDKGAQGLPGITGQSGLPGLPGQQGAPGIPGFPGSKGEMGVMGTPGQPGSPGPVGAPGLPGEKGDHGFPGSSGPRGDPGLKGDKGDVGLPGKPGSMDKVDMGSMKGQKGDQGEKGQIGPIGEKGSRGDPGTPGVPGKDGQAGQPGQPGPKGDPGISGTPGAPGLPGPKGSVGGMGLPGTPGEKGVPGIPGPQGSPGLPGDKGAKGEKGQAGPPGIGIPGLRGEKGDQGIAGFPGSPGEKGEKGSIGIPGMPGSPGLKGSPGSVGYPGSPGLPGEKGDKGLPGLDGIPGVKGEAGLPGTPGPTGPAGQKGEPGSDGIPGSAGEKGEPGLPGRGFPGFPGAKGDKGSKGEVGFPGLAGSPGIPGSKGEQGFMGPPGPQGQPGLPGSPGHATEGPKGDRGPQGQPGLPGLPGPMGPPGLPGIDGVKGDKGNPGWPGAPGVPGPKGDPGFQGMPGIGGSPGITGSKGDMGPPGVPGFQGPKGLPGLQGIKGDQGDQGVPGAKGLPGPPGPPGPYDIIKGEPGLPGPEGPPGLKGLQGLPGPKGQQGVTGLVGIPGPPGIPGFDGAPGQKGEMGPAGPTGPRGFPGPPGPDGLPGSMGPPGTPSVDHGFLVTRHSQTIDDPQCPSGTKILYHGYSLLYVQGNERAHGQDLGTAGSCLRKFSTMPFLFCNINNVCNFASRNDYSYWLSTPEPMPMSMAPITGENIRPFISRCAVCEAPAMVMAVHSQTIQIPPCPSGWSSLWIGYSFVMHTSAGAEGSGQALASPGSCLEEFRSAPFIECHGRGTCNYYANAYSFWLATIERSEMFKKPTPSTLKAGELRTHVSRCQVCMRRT
MAFK, sequence (chain, as listed by the source): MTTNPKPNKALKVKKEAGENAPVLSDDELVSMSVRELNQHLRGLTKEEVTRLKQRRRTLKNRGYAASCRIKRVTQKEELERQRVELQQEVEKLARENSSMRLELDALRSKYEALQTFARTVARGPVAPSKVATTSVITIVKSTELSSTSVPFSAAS

Substance	solubility in G1/S (log2) (HeLa Kyoto [1])	solubility change mitosis (log2) (HeLa Kyoto [2])
MNSRQAWRLFLSQGRGDRWVSRPRGHFSPALRREFFTTTTKEGYDRRPVDITPLEQRKLTFDTHALVQDLETHGFDKTQAETIVSALTALSNVSLDTIYKEMVTQAQQEITVQQLMAHLDAIRKDMVILEKSEFANLRAENEKMKIELDQVKQQLMHETSRIRADNKLDINLERSRVTDMFTDQEKQLMETTTEFTKKDTQTKSIISETSNKIDAEIASLKTLMESNKLETIRYLAASVFTCLAIALGFYRFWK [CCDC90B]	0.144	0.249
MTQDRPLLAVQEALKKCFPVVEEQQGLWQSALRDCQPLLSSLSNLAEQLQAAQNLRFEDVPALRAFPDLKERLRRKQLVAGDIVLDKLGERLAILLKVRDMVSSHVERVFQIYEQHADTVGIDAVLQPSAVSPSVADMLEWLQDIERHYRKSYLKRKYLLSSIQWGDLANIQALPKAWDRISKDEHQDLVQDILLNVSFFLEE [C1ORF109]	0.0701	0.16
MELPAVNLKVILLGHWLLTTWGCIVFSGSYAWANFTILALGVWAVAQRDSIDAISMFLGGLLATIFLDIVHISIFYPRVSLTDTGRFGVGMAILSLLLKPLSCCFVYHMYRERGGELLVHTGFLGSSQDRSAYQTIDSAEAPADPFAVPEGRSQDARGY [AGTRAP]	0.0387	-0.217
MSFKREGDDWSQLNVLKKRRVGDLLASYIPEDEALMLRDGRFACAICPHRPVLDTLAMLTAHRAGKKHLSSLQLFYGKKQPGKERKQNPKHQNELRREETKAEAPLLTQTRLITQSALHRAPHYNSCCRRKYRPEAPGPSVSLSPMPPSEVKLQSGKISREPEPAAGPQAEESATVSAPAPMSPTRRRALDHYLTLRSSGWIPDGRGRWVKDENVEFDSDEEEPPDLPLD [SCNM1]	0.0519	0.462
MQRAVPEGFGRRKLGSDMGNAERAPGSRSFGPVPTLLLLAAALLAVSDALGRPSEEDEELVVPELERAPGHGTTRLRLHAFDQQLDLELRPDSSFLAPGFTLQNVGRKSGSETPLPETDLAHCFYSGTVNGDPSSAAALSLCEGVRGAFYLLGEAYFIQPLPAASERLATAAPGEKPPAPLQFHLLRRNRQGDVGGTCGVVDDEPRPTGKAETEDEDEGTEGEDEGAQWSPQDPALQGVGQPTGTGSIRKKRFVSSHRYVETMLVADQSMAEFHGSGLKHYLLTLFSVAARLYKHPSIRNSVSLVVVKILVIHDEQKGPEVTSNAALTLRNFCNWQKQHNPPSDRDAEHYDTAILFTRQDLCGSQTCDTLGMADVGTVCDPSRSCSVIEDDGLQAAFTTAHELGHVFNMPHDDAKQCASLNGVNQDSHMMASMLSNLDHSQPWSPCSAYMITSFLDNGHGECLMDKPQNPIQLPGDLPGTSYDANRQCQFTFGEDSKHCPDAASTCSTLWCTGTSGGVLVCQTKHFPWADGTSCGEGKWCINGKCVNKTDRKHFDTPFHGSWGMWGPWGDCSRTCGGGVQYTMRECDNPVPKNGGKYCEGKRVRYRSCNLEDCPDNNGKTFREEQCEAHNEFSKASFGSGPAVEWIPKYAGVSPKDRCKLICQAKGIGYFFVLQPKVVDGTPCSPDSTSVCVQGQCVKAGCDRIIDSKKKFDKCGVCGGNGSTCKKISGSVTSAKPGYHDIITIPTGATNIEVKQRNQRGSRNNGSFLAIKAADGTYILNGDYTLSTLEQDIMYKGVVLRYSGSSAALERIRSFSPLKEPLTIQVLTVGNALRPKIKYTYFVKKKKESFNAIPTFSAWVIEEWGECSKSCELGWQRRLVECRDINGQPASECAKEVKPASTRPCADHPCPQWQLGEWSSCSKTCGKGYKKRSLKCLSHDGGVLSHESCDPLKKPKHFIDFCTMAECS [ADAMTS1]	-0.34	-0.192
MEAPEGGGGGPAARGPEGQPAPEARVHFRVARFIMEAGVKLGMRSIPIATACTIYHKFFCETNLDAYDPYLIAMSSIYLAGKVEEQHLRTRDIINVSNRYFNPSGEPLELDSRFWELRDSIVQCELLMLRVLRFQVSFQHPHKYLLHYLVSLQNWLNRHSWQRTPVAVTAWALLRDSYHGALCLRFQAQHIAVAVLYLALQVYGVEVPAEVEAEKPWWQVFNDDLTKPIIDNIVSDLIQIYTMDTEIP [FAM58A]	-0.46	0.235
COL4A1	-0.0938	0.225
MVARVWSLMRFLIKGSVAGGAVYLVYDQELLGPSDKSQAALQKAGEVVPPAMYQFSQYVCQQTGLQIPQLPAPPKIYFPIRDSWNAGIMTVMSALSVAPSKAREYSKEGWEYVKARTK [MIC13]	0.091	0.449
MMAGCGEIDHSINMLPTNRKANESCSNTAPSLTVPECAICLQTCVHPVSLPCKHVFCYLCVKGASWLGKRCALCRQEIPEDFLDKPTLLSPEELKAASRGNGEYAWYYEGRNGWWQYDERTSRELEDAFSKGKKNTEMLIAGFLYVADLENMVQYRRNEHGRRRKIKRDIIDIPKKGVAGLRLDCDANTVNLARESSADGADSVSAQSGASVQPLVSSVRPLTSVDGQLTSPATPSPDASTSLEDSFAHLQLSGDNTAERSHRGEGEEDHESPSSGRVPAPDTSIEETESDASSDSEDVSAVVAQHSLTQQRLLVSNANQTVPDRSDRSGTDRSVAGGGTVSVSVRSRRPDGQCTVTEV [RNF146]	-0.244	-0.158
TFAP2A	0.185	0.505
CHD7	-0.18	0.0296
MED13L	0.0923	-0.119
MTSKGPEEEHPSVTLFRQYLRIRTVQPKPDYGAAVAFFEETARQLGLGCQKVEVAPGYVVTVLTWPGTNPTLSSILLNSHTDVVPVFKEHWSHDPFEAFKDSEGYIYARGAQDMKCVSIQYLEAVRRLKVEGHRFPRTIHMTFVPDEEVGGHQGMELFVQRPEFHALRAGFALDEGIANPTDAFTVFYSERSPWWVRVTSTGRPGHASRFMEDTAAEKLHKVVNSILAFREKEWQRLQSNPHLKEGSVTSVNLTKLEGGVAYNVIPATMSASFDFRVAPDVDFKAFEEQLQSWCQAAGEGVTLEFAQKWMHPQVTPTDDSNPWWAAFSRVCKDMNLTLEPEIMPAATDNRYIRAVGVPALGFSPMNRTPVLLHDHDERLHEAVFLRGVDIYTRLLPALASVPALPSDS [ACY1]	0.288	-0.0632
MVDHLANTEINSQRIAAVESCFGASGQPLALPGRVLLGEGVLTKECRKKAKPRIFFLFNDILVYGSIVLNKRKYRSQHIIPLEEVTLELLPETLQAKNRWMIKTAKKSFVVSAASATERQEWISHIEECVRRQLRATGRPPSTEHAAPWIPDKATDICMRCTQTRFSALTRRHHCRKCGFVVCAECSRQRFLLPRLSPKPVRVCSLCYRELAAQQRQEEAEEQGAGSPGQPAHLARPICGASSGDDDDSDEDKEGSRDGDWPSSVEFYASGVAWSAFHS [PLEKHF1]	0.0679	0.00206
MAFK	0.335	0.364
MAVTEASLLRQCPLLLPQNRSKTVYEGFISAQGRDFHLRIVLPEDLQLKNARLLCSWQLRTILSGYHRIVQQRMQHSPDLMSFMMELKMLLEVALKNRQELYALPPPPQFYSSLIEEIGTLGWDKLVYADTCFSTIKLKAEDASGREHLITLKLKAKYPAESPDYFVDFPVPFCASWTPQSSLISIYSQFLAAIESLKAFWDVMDEIDEKTWVLEPEKPPRSATARRIALGNNVSINIEVDPRHPTMLPECFFLGADHVVKPLGIKLSRNIHLWDPENSVLQNLKDVLEIDFPARAILEKSDFTMDCGICYAYQLDGTIPDQVCDNSQCGQPFHQICLYEWLRGLLTSRQSFNIIFGECPYCSKPITLKMSGRKH [FANCL]	0.184	0.0266
MWSLTASEGESTTAHFFLGAGDEGLGTRGIGMRPEESDSELLEDEEDEVPPEPQIIVGICAMTKKSKSKPMTQILERLCRFDYLTVVILGEDVILNEPVENWPSCHCLISFHSKGFPLDKAVAYSKLRNPFLINDLAMQYYIQDRREVYRILQEEGIDLPRYAVLNRDPARPEECNLIEGEDQVEVNGAVFPKPFVEKPVSAEDHNVYIYYPSSAGGGSQRLFRKIGSRSSVYSPESSVRKTGSYIYEEFMPTDGTDVKVYTVGPDYAHAEARKSPALDGKVERDSEGKEIRYPVMLTAMEKLVARKVCVAFKQTVCGFDLLRANGHSFVCDVNGFSFVKNSMKYYDDCAKILGNTIMRELAPQFQIPWSIPTEAEDIPIVPTTSGTMMELRCVIAIIRHGDRTPKQKMKMEVKHPRFFALFEKHGGYKTGKLKLKRPEQLQEVLDITRLLLAELEKEPGGEIEEKTGKLEQLKSVLEMYGHFSGINRKVQLTYYPHGVKASNEGQDPQRETLAPSLLLVLKWGGELTPAGRVQAEELGRAFRCMYPGGQGDYAGFPGCGLLRLHSTFRHDLKIYASDEGRVQMTAAAFAKGLLALEGELTPILVQMVKSANMNGLLDSDGDSLSSCQHRVKARLHHILQQDAPFGPEDYDQLAPTRSTSLLNSMTIIQNPVKVCDQVFALIENLTHQIRERMQDPRSVDLQLYHSETLELMLQRWSKLERDFRQKSGRYDISKIPDIYDCVKYDVQHNGSLGLQGTAELLRLSKALADVVIPQEYGISREEKLEIAVGFCLPLLRKILLDLQRTHEDESVNKLHPLCYLRYSRGVLSPGRHVRTRLYFTSESHVHSLLSVFRYGGLLDETQDAQWQRALDYLSAISELNYMTQIVIMLYEDNTQDPLSEERFHVELHFSPGVKGVEEEGSAPAGCGFRPASSENEEMKTNQGSMENLCPGKASDEPDRALQTSPQPPEGPGLPRRSPLIRNRKAGSMEVLSETSSSRPGGYRLFSSSRPPTEMKQSGLGSQCTGLFSTTVLGGSSSAPNLQDYARSHGKKLPPASLKHRDELLFVPAVKRFSVSFAKHPTNGFEGCSMVPTIYPLETLHNALSLRQVSEFLSRVCQRHTDAQAQASAALFDSMHSSQASDNPFSPPRTLHSPPLQLQQRSEKPPWYSSGPSSTVSSAGPSSPTTVDGNSQFGFSDQPSLNSHVAEEHQGLGLLQETPGSGAQELSIEGEQELFEPNQSPQVPPMETSQPYEEVSQPCQEVPDISQPCQDISEALSQPCQKVPDISQQCQENHDNGNHTCQEVPHISQPCQKSSQLCQKVSEEVCQLCLENSEEVSQPCQGVSVEVGKLVHKFHVGVGSLVQETLVEVGSPAEEIPEEVIQPYQEFSVEVGRLAQETSAINLLSQGIPEIDKPSQEFPEEIDLQAQEVPEEIN [PPIP5K1]	-0.000791	-0.212
